Consider one molecule from patent US7871610B2, “Antibodies to Tie1 ectodomain” (Dyax Corp., priority 2003, dated 2011).

Assay [1] relates to bFGF-induced angiogenesis. The assay is described as follows: […] plug assay, bFGF-induced angiogenesis in NMRI nu/nu mice. The class given is in vivo, mouse. On the procedure:
The germlined variant of the E3 IgG antibody was evaluated in an in vivo assay for angiogenesis induced by bFGF in […]™ plugs. Growth factor reduced […]™ (BD Biosciences, catalog # 354230) was supplemented with 80 ng/ml of bFGF (R&D Systems, catalog #234-FSE). The A2-SV or an IgG4 E3 antibody (10 μg/ml) or PBS was injected subcutaneously into the abdominal area of NMRI nu/nu mice (150 μl of Matrigel/plug).
In the first assay, two mice were injected with […]™ supplemented with bFGF and soluble VEGFR-1 (10 μg/ml) as a positive control for an angiogenic inhibitor. At day 7 post-implantation mice were anesthetized and perfused through heart with 4% paraformaldehyde (PFA) in phosphate buffered saline (PBS). […]™ plugs and a piece of liver were removed and embedded in paraffin. Sections were cut and stained with hematoxylin and eosin (H&E).
In a second assay, mice were treated as described above, and then anesthetized eight days post-implantation and injected with fluorescein-conjugated tomato (lycopersicon esculentum) lectin (100 μg in 200 μl of PBS; Vector, catalog #FL-1171) into the tail vein. After five min circulation the animals were perfused through the heart with 10 ml of PBS followed by 10 ml of 4% PFA in PBS. […]™ plugs and pieces of kidney and liver were removed and frozen in OCT (Tissue-Tek). Nuclei were visualized on sections by using […]® mounting medium containing DAPI (Vector) and analyzed under fluorescence microscopy.

Another assay deals with Tie1 (Homo sapiens, UniProt P35590). The assay is described as follows: Confocal microscopy staining of HUVEC. To be noted: biotinylated antibody 10 μg/ml, fixed cells. Further details: endogenous in cells; host or cells: HUVEC. The class given is binding. Here is the method: We analyzed the staining pattern of E3 in HUVECS using confocal microscopy. HUVEC were trypsinised, washed with PBS and spotted at a density of 60 000 cells on a gelatine coated microscope slide and incubated for 24 hours in a humidified incubator at 37° C. Cells were air dried and fixed with 4% paraformaldehyde for 20 minutes at room temperature. The slides were washed with PBS. The slides were incubated with 10% Heat inactivated human serum (incubation buffer).
Chain of Tie1 (P35590 22-1138): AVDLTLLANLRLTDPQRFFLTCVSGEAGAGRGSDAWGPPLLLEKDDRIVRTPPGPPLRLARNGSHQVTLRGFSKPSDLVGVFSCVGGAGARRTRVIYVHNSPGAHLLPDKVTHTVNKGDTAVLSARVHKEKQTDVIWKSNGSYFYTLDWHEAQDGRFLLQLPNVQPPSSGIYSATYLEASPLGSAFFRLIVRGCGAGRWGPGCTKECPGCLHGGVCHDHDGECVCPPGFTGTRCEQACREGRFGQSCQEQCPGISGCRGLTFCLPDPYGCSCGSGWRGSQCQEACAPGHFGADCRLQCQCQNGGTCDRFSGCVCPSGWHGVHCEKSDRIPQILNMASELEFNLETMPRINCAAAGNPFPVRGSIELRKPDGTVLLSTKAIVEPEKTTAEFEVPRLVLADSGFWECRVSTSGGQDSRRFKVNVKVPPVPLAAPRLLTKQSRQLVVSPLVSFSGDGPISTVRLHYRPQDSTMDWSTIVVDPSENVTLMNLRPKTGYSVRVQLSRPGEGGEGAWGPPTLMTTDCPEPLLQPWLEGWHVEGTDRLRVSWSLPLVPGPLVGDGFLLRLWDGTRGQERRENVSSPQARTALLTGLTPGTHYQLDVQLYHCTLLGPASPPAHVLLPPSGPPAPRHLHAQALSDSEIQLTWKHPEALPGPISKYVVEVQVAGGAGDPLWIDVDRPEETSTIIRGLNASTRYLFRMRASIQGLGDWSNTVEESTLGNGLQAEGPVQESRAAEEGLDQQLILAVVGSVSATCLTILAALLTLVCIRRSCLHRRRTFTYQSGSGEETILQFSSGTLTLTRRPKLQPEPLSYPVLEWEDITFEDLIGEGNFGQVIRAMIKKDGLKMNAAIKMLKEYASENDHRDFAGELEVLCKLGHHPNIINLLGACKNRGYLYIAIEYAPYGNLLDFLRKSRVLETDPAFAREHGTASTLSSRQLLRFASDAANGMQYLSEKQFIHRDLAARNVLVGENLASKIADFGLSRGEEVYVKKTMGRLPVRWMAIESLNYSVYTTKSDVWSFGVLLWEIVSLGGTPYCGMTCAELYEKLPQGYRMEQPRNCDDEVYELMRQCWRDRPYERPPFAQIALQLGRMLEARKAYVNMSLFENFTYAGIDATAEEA
For measuring specific binding to Tie-1, biotinylated antibody E3 and biotinylated negative control antibody A2 were used at a concentration of 10 μg/ml and incubated for 1 hour at room temperature. Slides were washed twice with PBS. Then, Strepatvidin-R-phycoerythrin (Dako, Glostrup, Denmark) was added and incubated for 1 hour at room temperature. After the last incubation and washing detection of bound antibodies was performed by means of confocal microscopy.

In a further assay the target is T1, mouse Tie1 (Mus musculus, UniProt Q06806).
T1 construct: host or cells: mouse endothelial cell lines MS1, Le-2, Bend3, SVEC
T1 sequence (Q06806 23-1134): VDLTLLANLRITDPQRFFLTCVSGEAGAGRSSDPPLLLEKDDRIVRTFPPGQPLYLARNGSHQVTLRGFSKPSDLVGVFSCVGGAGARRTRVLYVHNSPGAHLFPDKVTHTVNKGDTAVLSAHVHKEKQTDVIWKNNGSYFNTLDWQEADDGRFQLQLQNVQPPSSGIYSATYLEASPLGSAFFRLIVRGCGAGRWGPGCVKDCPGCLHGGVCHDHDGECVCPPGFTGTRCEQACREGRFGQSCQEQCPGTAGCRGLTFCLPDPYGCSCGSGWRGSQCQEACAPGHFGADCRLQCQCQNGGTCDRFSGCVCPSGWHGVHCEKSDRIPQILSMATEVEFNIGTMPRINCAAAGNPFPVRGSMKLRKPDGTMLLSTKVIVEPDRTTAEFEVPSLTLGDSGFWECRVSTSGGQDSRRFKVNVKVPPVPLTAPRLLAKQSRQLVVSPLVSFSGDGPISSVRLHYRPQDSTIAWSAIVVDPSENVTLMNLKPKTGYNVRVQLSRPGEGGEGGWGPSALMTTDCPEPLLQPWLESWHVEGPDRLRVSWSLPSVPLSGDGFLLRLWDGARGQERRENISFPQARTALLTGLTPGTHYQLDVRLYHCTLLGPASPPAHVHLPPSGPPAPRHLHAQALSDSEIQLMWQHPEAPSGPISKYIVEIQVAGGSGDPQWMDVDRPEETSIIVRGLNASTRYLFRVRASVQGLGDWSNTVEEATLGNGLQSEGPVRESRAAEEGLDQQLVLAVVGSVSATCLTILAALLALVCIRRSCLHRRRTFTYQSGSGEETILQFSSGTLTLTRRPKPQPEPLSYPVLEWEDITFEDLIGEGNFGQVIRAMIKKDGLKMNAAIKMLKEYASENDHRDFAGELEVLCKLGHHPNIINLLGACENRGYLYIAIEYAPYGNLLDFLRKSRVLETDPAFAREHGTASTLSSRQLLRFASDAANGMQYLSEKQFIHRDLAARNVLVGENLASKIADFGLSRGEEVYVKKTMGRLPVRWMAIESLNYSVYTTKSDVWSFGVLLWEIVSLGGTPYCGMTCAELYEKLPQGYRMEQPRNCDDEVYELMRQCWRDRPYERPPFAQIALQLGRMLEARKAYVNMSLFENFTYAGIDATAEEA
The assay is described as follows: Flow cytometry binding to mouse endothelial cell lines. The settings on record: MS1, Le-2, Bend3, SVEC and Tie-1 transfected Le-2 cells; biotinylated antibody. Here is the method:
Specific binding of the Tie-1 antibodies and of control Mabs to mouse endothelial cells was measured by flow cytometry analysis (FACSscan, Becton Dickinson, Oxnard, Epics, Coulter). Mouse endothelial cell lines MS1, Le-2, Bend3, SVEC (ATCC, Rockville) and Tie-1 transfected Le-2 cells were stained. Cell staining was modified from existing protocols. About 200,000 cells were used in each experiment: after trypsinization, cells were washed one time in PBS and resuspended PBS, 10% Heat inactivated human serum (incubation buffer). To test specificity, antibodies were incubated at different dilutions for 1 h at room temperature. Cells were spun down by centrifugation for 3 min at 611 g. Between incubations cells were washed twice with PBS. […] After the final incubation step bound antibodies were detected by means of flow cytometry on a FACSCan and Epics Altra (Becton Dickinson, Oxnard, Coulter) and results analyzed.
Intracellular Tie-1 was measured as described above, except for the addition of Saponin to the incubation buffer to a final concentration of 0.1% during incubations. […] The binding pattern in mouse cell lines detected by flow cytometry is different from the binding pattern in HUVEC in that in mouse cells there is a greater cell surface staining than that compared to primary human endothelial cell lines.
A general note: In flow cytometry, cells or beads pass a laser one at a time.

B1: E3: human anti-Tie1 antibody from Fab phage library; HC SEQ ID NO:114, LC SEQ ID NO:116 (antibody, V domains shown)
VH: EVQLLESGGGLVQPGGSLRLSCAASGFTFSMYGMVWVRQAPGKGLEWVSVISPSGGNTGYADSVKGRFTISRDNSKNTLYLQVNSLRAEDTAVYYCARAPRGYSYGYYYWGQGTLVTVSSASTKGPSVFPLAPSSKSTSGG
VL: DIQMTQSPLSLSASVGDRVTITCRASQGIGHYLAWYQQKPGKVPKLLIYTASTLQSGVPSRFSGSGSGTDFTLTINSLQPEDVATYYCQQFNSYPHTFGQGTRLDIK
modifications: Synthetically generated peptide
In the case of B1, in assay [1] (conclusion from the two experiments), the “bFGF-induced angiogenesis in vivo” value is given as “can inhibit bFGF-induced angiogenesis in vivo”. Further, in assay [1] (first assay, day 7, bFGF 80 ng/ml, antibody 10 μg/ml in plug, E3 = germlined variant, IgG4), the “vessel-like structures in MATRIGEL plugs (H&E staining)” value is recorded as “neither modification of the matrix nor organization of the cells”. Further, the “fluorescein-lectin staining of MATRIGEL plugs” value in assay [1] (second assay, eight days post-implantation, antibody 10 μg/ml in plug) was “no staining could be detected”. Besides, in the assay with Tie1, the “binding to HUVEC by confocal microscopy” value is on record as “binds specifically to HUVEC” and the “localisation of staining in HUVEC” value is reported as “pre-dominantly located inside of the cell”. Moreover, the “binding to mouse endothelial cell lines” value with mouse Tie1 is “binds to mouse endothelial cell lines”.
